In patent publication US20260092100A1 (ICOSAVAX, published 2026):

T1: hMPV033 antigen (ectodomain 1-472 of the UT-A CL-28 hMPV F mutant fused to I53-50A) (human metapneumovirus, A strain)
T1 construct: A 6-Gly linker replaces the F1/F2 cleavage site; The stabilising mutations T127C, N153C, A185P, V231I, L219K, G294E, T365C and V463C are already in the entry; A GS linker and I53-50A follow; also called hMPV033 F protein; I53-50A-hMPV033
T1 chain: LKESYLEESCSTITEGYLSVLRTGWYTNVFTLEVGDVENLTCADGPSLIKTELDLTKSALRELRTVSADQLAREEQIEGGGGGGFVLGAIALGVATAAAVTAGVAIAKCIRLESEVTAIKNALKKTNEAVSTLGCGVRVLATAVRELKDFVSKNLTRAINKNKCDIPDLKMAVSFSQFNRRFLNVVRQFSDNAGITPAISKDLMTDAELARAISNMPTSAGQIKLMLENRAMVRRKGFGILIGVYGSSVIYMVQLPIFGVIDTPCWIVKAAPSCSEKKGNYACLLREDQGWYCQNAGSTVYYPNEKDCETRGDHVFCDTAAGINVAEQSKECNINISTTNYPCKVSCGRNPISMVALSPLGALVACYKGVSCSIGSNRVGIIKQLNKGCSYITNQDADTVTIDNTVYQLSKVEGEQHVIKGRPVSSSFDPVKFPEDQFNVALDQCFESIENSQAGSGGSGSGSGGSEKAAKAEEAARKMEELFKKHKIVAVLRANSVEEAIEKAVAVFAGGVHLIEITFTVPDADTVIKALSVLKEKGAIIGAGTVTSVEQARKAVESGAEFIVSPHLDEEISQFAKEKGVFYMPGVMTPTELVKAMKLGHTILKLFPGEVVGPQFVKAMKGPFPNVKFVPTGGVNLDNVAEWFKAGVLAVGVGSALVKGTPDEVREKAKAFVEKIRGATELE

B1: 13E10 hIgG1 (antibody, V domains shown)
VH: EVKLVESGGGLVQPGGSLSLSCAASGFTFTDYYMNWVRQPPGKALEWLGFIRNKDNGYTTEYSASVKGRFTISRDNSQSILYLQMNALRAEDSATYYCTRYYFGYDGDYFDYWGQGTTLTVSS
VL: EIVLTQSPTTMAASPGEKITITCSASSSISSNYLHWYQQKAGFSPKLLIYRTSNLASGVPARFSGSGSGTSYSLTIGTMEAEDVATYYCQQGSSLPRTFGGGTKLEIKR
notes: Recombinant form with human IgG1 Fc
B2: 42C2 hIgG1 (antibody, V domains shown)
VH: QVTLKESGPGILQPSQTLSLTCSFSGFSLSTFGMGVVWTRQPSGKGLEWLAHIWWDDDNYYNPALKSRLTISKDTSKNQVFLKIANADTADTATYYCARIVKVLEQYFDVWGTGTTVTVSS
VL: DIMMTQSHKFMSTSVGDRVIFTCKASQDVGTAVAWYQQKSGQSPKLLIYWASTRHTGVPDRFTGSGSGTDFTLTISNVQSEDLADYFCQQYTSYPLTFGAGTKLELKR
notes: as for B1
B3: 42C2 (mouse) (antibody, V domains shown)
VH: B2 VH
VL: DIMMTQSHKFMSTSVGDRVIFTCKASQDVGTAVAWYQQKSGQSPKLLIYWASTRHTGVPDRFTGSGSGTDFTLTISNVQSEDLADYFCQQYTSYPLTFGAGTKLELK
notes: Mouse IgG1 / kappa; also called 42C2 mIgG; 42C2 mAB
B4: 17D10 hIgG1 (antibody, V domains shown)
VH: QVQLQQPGAELVKPGASVKMSCKASGYTFTSYWITWVKQRPGQGLEWIGDIYPGSGSITYNEKFKTKATLTVDTSSSTAYMQLNSLTSEDSAVYYCAGLLRLTFDVWGTGTTVTVSS
VL: DIQLTQTTSSLSASLGDRVTISCRASQDISNYLNWYQQKPDGTVKLLISYTSGLHSGVPSRFSGSGSGTDYSLTISNLEQEDIATYFCQQGNTLPWTFGGGTKLEIKR
notes: Recombinant form with human IgG1 Fc; also called Human 17D10 mAB; 171D10 hIgG1
B5: 17D10 (mouse) (antibody, V domains shown)
VH: B4 VH
VL: DIQLTQTTSSLSASLGDRVTISCRASQDISNYLNWYQQKPDGTVKLLISYTSGLHSGVPSRFSGSGSGTDYSLTISNLEQEDIATYFCQQGNTLPWTFGGGTKLEIK
notes: Mouse IgG1 / kappa; also called Mouse 17D10 mAB; 17D10 mIgG
B6: 13E10 (mouse) (antibody, V domains shown)
VH: B1 VH
VL: EIVLTQSPTTMAASPGEKITITCSASSSISSNYLHWYQQKAGFSPKLLIYRTSNLASGVPARFSGSGSGTSYSLTIGTMEAEDVATYYCQQGSSLPRTFGGGTKLEIK
notes: Mouse IgG1 / kappa; also called 13E10 mIgG
B7: 17E10 (antibody, mouse IgG1, V domains shown)
VH: B4 VH
VL: B5 VL

Biological target: T1, hMPV033 antigen (ectodomain 1-472 of …)
Assay: summary of characterisation

| Binder | binding result |
| --- | --- |
| B1 | binds |
| B2 | binds |

Biological target: T2, DS-Cav1 (RSV control) (UniProt P03420 26-513)
T2 construct: also called RSV F protein; RSV F
Assay: Octet biolayer interferometry, bottom panel titled 'anti-DS-Cav1-CompA specificity'; format and concentrations not given

| Binder | binding result |
| --- | --- |
| B3 | no binding |
| B2 | no binding |

Biological target: T3, hMPV F protein on hMPV/A virus (human metapneumovirus, subtype A, UniProt Q6WB98 19-539)
Assay: cell-based or functional assay
Target sequence in this assay (Q6WB98 19-539): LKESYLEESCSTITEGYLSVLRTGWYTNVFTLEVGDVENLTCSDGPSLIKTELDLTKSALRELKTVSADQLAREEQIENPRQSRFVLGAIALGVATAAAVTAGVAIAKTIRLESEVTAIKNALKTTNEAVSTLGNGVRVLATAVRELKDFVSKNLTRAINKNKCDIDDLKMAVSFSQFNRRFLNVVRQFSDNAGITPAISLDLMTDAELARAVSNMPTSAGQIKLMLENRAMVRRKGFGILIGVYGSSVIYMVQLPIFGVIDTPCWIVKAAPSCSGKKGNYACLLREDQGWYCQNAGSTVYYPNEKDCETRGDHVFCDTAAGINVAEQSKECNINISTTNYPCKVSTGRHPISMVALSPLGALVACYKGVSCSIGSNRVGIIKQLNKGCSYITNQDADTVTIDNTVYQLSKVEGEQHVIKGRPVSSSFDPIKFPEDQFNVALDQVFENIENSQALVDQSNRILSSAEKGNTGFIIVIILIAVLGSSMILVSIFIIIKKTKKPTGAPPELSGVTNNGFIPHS

| Binder | IC50, final serum dilution [µg/mL] | IC50, original serum dilution [µg/mL] | hMPV/A RL Bx Titer (Log 2), microneutralization assay [log2] |
| --- | --- | --- | --- |
| B4 | 0.0345 | 0.138 | 10.5 |
| B5 | 0.0488 | 0.195 | 10 |
| B6 | 0.195 | 0.781 | 8 |
| B1 | 0.0977 | 0.391 | 9 |
| B3 | 0.0977 | 0.391 | 9 |
| B2 | 0.0691 | 0.276 | 9.5 |

Biological target: T2, DS-Cav1 (RSV control)
Assay: Octet biolayer interferometry, bottom panel titled 'anti-DS-Cav1-CompA specificity'; format and concentrations not given
Remark: another data set of the same source

| Binder | binding result |
| --- | --- |
| B6 | no binding |
| B1 | no binding |

Biological target: T2, DS-Cav1 (RSV control)
Assay: Octet biolayer interferometry, bottom panel titled 'anti-DS-Cav1-dn5B specificity'; format and concentrations not given

| Binder | binding result |
| --- | --- |
| B4 | no binding |
| B5 | no binding |

Biological target: T3, hMPV F protein on hMPV/A virus
Assay: cell-based or functional assay
Remark: another data set of the same source

| Binder | hMPV/A neutralization assay titer, supernatant [log2] |
| --- | --- |
| B5 | > 5 |
| B6 | > 5 |
| B3 | > 5 |
| B7 | > 5 |

Biological target: T1, hMPV033 antigen (ectodomain 1-472 of …)
Assay: BLI (Octet)

| Binder | binding result |
| --- | --- |
| B4 | binds |

Biological target: T1, hMPV033 antigen (ectodomain 1-472 of …)
Assay: Octet biolayer interferometry: mouse antibody captured on Protein G biosensors, CompA-hMPV033 (panel title 'Pre Fusion hMPV-F') at 10 µg/mL in solution, 120 s association and 120 s dissociation

| Binder | binding result |
| --- | --- |
| B5 | binds |
| B6 | binds |
| B3 | binds |
